Measured values as given in patent US20230416330A1, “Optimized GIP Peptide Analogues” (Antag Therapeutics ApS, priority 2019, published 2023).
Starred links: 1 amine or outer side, 2 acyl side, 3 side chain; linkers in the order of their positions; H or OH if unused. Non-standard residues stand in square brackets, D forms with d. Groups on a side chain read outwards from the residue. No end group written: not given here. *: point of attachment. C18 diacid = O=C(O)CCCCCCCCCCCCCCCCC(=O)*; C16 diacid = O=C(O)CCCCCCCCCCCCCCC(=O)*; γGlu = O=C(O)[C@H](CCC(=O)[*:2])N[*:1]; Adipoyl = O=C(CCCCC(=O)[*:2])[*:1]; Glutaryl = O=C(CCCC(=O)[*:2])[*:1]; Palmitoyl = CCCCCCCCCCCCCCCC(=O)*; Suc = O=C(CCC(=O)[*:2])[*:1]; Nle = CCCC[C@H](N)C(=O)O; AEEA = NCCOCCOCC(=O)O; Aib = CC(C)(N)C(=O)O

T1: human GIP receptor (human, UniProt P48546 22-466)
T1 sequence (looked up): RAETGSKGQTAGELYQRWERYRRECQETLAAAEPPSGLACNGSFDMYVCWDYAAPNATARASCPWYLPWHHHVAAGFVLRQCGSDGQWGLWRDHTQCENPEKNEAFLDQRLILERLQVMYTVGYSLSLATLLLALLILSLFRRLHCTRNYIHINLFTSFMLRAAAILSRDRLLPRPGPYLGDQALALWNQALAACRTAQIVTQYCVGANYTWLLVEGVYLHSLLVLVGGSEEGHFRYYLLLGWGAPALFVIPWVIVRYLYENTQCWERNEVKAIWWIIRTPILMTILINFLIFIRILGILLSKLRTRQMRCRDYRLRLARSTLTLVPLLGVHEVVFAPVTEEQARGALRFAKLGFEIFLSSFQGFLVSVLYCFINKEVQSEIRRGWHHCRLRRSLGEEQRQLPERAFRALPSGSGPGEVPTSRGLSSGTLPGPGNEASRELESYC

B1: AT754 (peptide)
peptide: EGTFISEYSI[Aib]LEKIK([AEEA-AEEA-γGlu-C18 diacid])QQDFVEWLLAQKPSSGAPPPS-OH
modifications: N-terminus assumed
SMILES: CC[C@H](C)[C@H](NC(=O)[C@H](CCCCN)NC(=O)[C@H](CCC(=O)O)NC(=O)[C@H](CC(C)C)NC(=O)C(C)(C)NC(=O)[C@@H](NC(=O)[C@H](CO)NC(=O)[C@H](Cc1ccc(O)cc1)NC(=O)[C@H](CCC(=O)O)NC(=O)[C@H](CO)NC(=O)[C@@H](NC(=O)[C@H](Cc1ccccc1)NC(=O)[C@@H](NC(=O)CNC(=O)[C@@H](N)CCC(=O)O)[C@@H](C)O)[C@@H](C)CC)[C@@H](C)CC)C(=O)N[C@@H](CCCCNC(=O)COCCOCCNC(=O)COCCOCCNC(=O)CC[C@H](NC(=O)CCCCCCCCCCCCCCCCC(=O)O)C(=O)O)C(=O)N[C@@H](CCC(N)=O)C(=O)N[C@@H](CCC(N)=O)C(=O)N[C@@H](CC(=O)O)C(=O)N[C@@H](Cc1ccccc1)C(=O)N[C@H](C(=O)N[C@@H](CCC(=O)O)C(=O)N[C@@H](Cc1c[nH]c2ccccc12)C(=O)N[C@@H](CC(C)C)C(=O)N[C@@H](CC(C)C)C(=O)N[C@@H](C)C(=O)N[C@@H](CCC(N)=O)C(=O)N[C@@H](CCCCN)C(=O)N1CCC[C@H]1C(=O)N[C@@H](CO)C(=O)N[C@@H](CO)C(=O)NCC(=O)N[C@@H](C)C(=O)N1CCC[C@H]1C(=O)N1CCC[C@H]1C(=O)N1CCC[C@H]1C(=O)N[C@@H](CO)C(=O)O)C(C)C
B2: AT755 (peptide)
peptide: Glutaryl-GTFISEYSI[Aib][Nle]EKIK(C16 diacid)QQEFVEWLLAQKPSSGAPPPS-OH
SMILES: CCCC[C@H](NC(=O)C(C)(C)NC(=O)[C@@H](NC(=O)[C@H](CO)NC(=O)[C@H](Cc1ccc(O)cc1)NC(=O)[C@H](CCC(=O)O)NC(=O)[C@H](CO)NC(=O)[C@@H](NC(=O)[C@H](Cc1ccccc1)NC(=O)[C@@H](NC(=O)CNC(=O)CCCC(=O)O)[C@@H](C)O)[C@@H](C)CC)[C@@H](C)CC)C(=O)N[C@@H](CCC(=O)O)C(=O)N[C@@H](CCCCN)C(=O)N[C@H](C(=O)N[C@@H](CCCCNC(=O)CCCCCCCCCCCCCCC(=O)O)C(=O)N[C@@H](CCC(N)=O)C(=O)N[C@@H](CCC(N)=O)C(=O)N[C@@H](CCC(=O)O)C(=O)N[C@@H](Cc1ccccc1)C(=O)N[C@H](C(=O)N[C@@H](CCC(=O)O)C(=O)N[C@@H](Cc1c[nH]c2ccccc12)C(=O)N[C@@H](CC(C)C)C(=O)N[C@@H](CC(C)C)C(=O)N[C@@H](C)C(=O)N[C@@H](CCC(N)=O)C(=O)N[C@@H](CCCCN)C(=O)N1CCC[C@H]1C(=O)N[C@@H](CO)C(=O)N[C@@H](CO)C(=O)NCC(=O)N[C@@H](C)C(=O)N1CCC[C@H]1C(=O)N1CCC[C@H]1C(=O)N1CCC[C@H]1C(=O)N[C@@H](CO)C(=O)O)C(C)C)[C@@H](C)CC
B3: AT753 (peptide)
peptide: Adipoyl-GTFISEYSI[Aib]LEKIK([AEEA-AEEA-γGlu-C18 diacid])QQEFVEWLLAQKPSSGAPPPS-OH
SMILES: CC[C@H](C)[C@H](NC(=O)[C@H](CCCCN)NC(=O)[C@H](CCC(=O)O)NC(=O)[C@H](CC(C)C)NC(=O)C(C)(C)NC(=O)[C@@H](NC(=O)[C@H](CO)NC(=O)[C@H](Cc1ccc(O)cc1)NC(=O)[C@H](CCC(=O)O)NC(=O)[C@H](CO)NC(=O)[C@@H](NC(=O)[C@H](Cc1ccccc1)NC(=O)[C@@H](NC(=O)CNC(=O)CCCCC(=O)O)[C@@H](C)O)[C@@H](C)CC)[C@@H](C)CC)C(=O)N[C@@H](CCCCNC(=O)COCCOCCNC(=O)COCCOCCNC(=O)CC[C@H](NC(=O)CCCCCCCCCCCCCCCCC(=O)O)C(=O)O)C(=O)N[C@@H](CCC(N)=O)C(=O)N[C@@H](CCC(N)=O)C(=O)N[C@@H](CCC(=O)O)C(=O)N[C@@H](Cc1ccccc1)C(=O)N[C@H](C(=O)N[C@@H](CCC(=O)O)C(=O)N[C@@H](Cc1c[nH]c2ccccc12)C(=O)N[C@@H](CC(C)C)C(=O)N[C@@H](CC(C)C)C(=O)N[C@@H](C)C(=O)N[C@@H](CCC(N)=O)C(=O)N[C@@H](CCCCN)C(=O)N1CCC[C@H]1C(=O)N[C@@H](CO)C(=O)N[C@@H](CO)C(=O)NCC(=O)N[C@@H](C)C(=O)N1CCC[C@H]1C(=O)N1CCC[C@H]1C(=O)N1CCC[C@H]1C(=O)N[C@@H](CO)C(=O)O)C(C)C
B4: AT706 (peptide)
peptide: Glutaryl-GTFISEYSI[Aib][Nle]EKIK([AEEA-AEEA-γGlu-C18 diacid])QQEFVEWLLAQKPSSGAPPPS-OH
SMILES: CCCC[C@H](NC(=O)C(C)(C)NC(=O)[C@@H](NC(=O)[C@H](CO)NC(=O)[C@H](Cc1ccc(O)cc1)NC(=O)[C@H](CCC(=O)O)NC(=O)[C@H](CO)NC(=O)[C@@H](NC(=O)[C@H](Cc1ccccc1)NC(=O)[C@@H](NC(=O)CNC(=O)CCCC(=O)O)[C@@H](C)O)[C@@H](C)CC)[C@@H](C)CC)C(=O)N[C@@H](CCC(=O)O)C(=O)N[C@@H](CCCCN)C(=O)N[C@H](C(=O)N[C@@H](CCCCNC(=O)COCCOCCNC(=O)COCCOCCNC(=O)CC[C@H](NC(=O)CCCCCCCCCCCCCCCCC(=O)O)C(=O)O)C(=O)N[C@@H](CCC(N)=O)C(=O)N[C@@H](CCC(N)=O)C(=O)N[C@@H](CCC(=O)O)C(=O)N[C@@H](Cc1ccccc1)C(=O)N[C@H](C(=O)N[C@@H](CCC(=O)O)C(=O)N[C@@H](Cc1c[nH]c2ccccc12)C(=O)N[C@@H](CC(C)C)C(=O)N[C@@H](CC(C)C)C(=O)N[C@@H](C)C(=O)N[C@@H](CCC(N)=O)C(=O)N[C@@H](CCCCN)C(=O)N1CCC[C@H]1C(=O)N[C@@H](CO)C(=O)N[C@@H](CO)C(=O)NCC(=O)N[C@@H](C)C(=O)N1CCC[C@H]1C(=O)N1CCC[C@H]1C(=O)N1CCC[C@H]1C(=O)N[C@@H](CO)C(=O)O)C(C)C)[C@@H](C)CC
B5: AT705 (peptide)
peptide: Glutaryl-GTFISEYSI[Aib]LEKIK([AEEA-AEEA-γGlu-C18 diacid])QQEFVEWLLAQKPSSGAPPPS-OH
SMILES: CC[C@H](C)[C@H](NC(=O)[C@H](CCCCN)NC(=O)[C@H](CCC(=O)O)NC(=O)[C@H](CC(C)C)NC(=O)C(C)(C)NC(=O)[C@@H](NC(=O)[C@H](CO)NC(=O)[C@H](Cc1ccc(O)cc1)NC(=O)[C@H](CCC(=O)O)NC(=O)[C@H](CO)NC(=O)[C@@H](NC(=O)[C@H](Cc1ccccc1)NC(=O)[C@@H](NC(=O)CNC(=O)CCCC(=O)O)[C@@H](C)O)[C@@H](C)CC)[C@@H](C)CC)C(=O)N[C@@H](CCCCNC(=O)COCCOCCNC(=O)COCCOCCNC(=O)CC[C@H](NC(=O)CCCCCCCCCCCCCCCCC(=O)O)C(=O)O)C(=O)N[C@@H](CCC(N)=O)C(=O)N[C@@H](CCC(N)=O)C(=O)N[C@@H](CCC(=O)O)C(=O)N[C@@H](Cc1ccccc1)C(=O)N[C@H](C(=O)N[C@@H](CCC(=O)O)C(=O)N[C@@H](Cc1c[nH]c2ccccc12)C(=O)N[C@@H](CC(C)C)C(=O)N[C@@H](CC(C)C)C(=O)N[C@@H](C)C(=O)N[C@@H](CCC(N)=O)C(=O)N[C@@H](CCCCN)C(=O)N1CCC[C@H]1C(=O)N[C@@H](CO)C(=O)N[C@@H](CO)C(=O)NCC(=O)N[C@@H](C)C(=O)N1CCC[C@H]1C(=O)N1CCC[C@H]1C(=O)N1CCC[C@H]1C(=O)N[C@@H](CO)C(=O)O)C(C)C
B6: AT751 (peptide)
peptide: EGTFISDYSIAMDKIK(Palmitoyl)QQDFVEWLLAQKPSSGAPPPS-OH
modifications: N-terminus assumed
SMILES: CCCCCCCCCCCCCCCC(=O)NCCCC[C@H](NC(=O)[C@@H](NC(=O)[C@H](CCCCN)NC(=O)[C@H](CC(=O)O)NC(=O)[C@H](CCSC)NC(=O)[C@H](C)NC(=O)[C@@H](NC(=O)[C@H](CO)NC(=O)[C@H](Cc1ccc(O)cc1)NC(=O)[C@H](CC(=O)O)NC(=O)[C@H](CO)NC(=O)[C@@H](NC(=O)[C@H](Cc1ccccc1)NC(=O)[C@@H](NC(=O)CNC(=O)[C@@H](N)CCC(=O)O)[C@@H](C)O)[C@@H](C)CC)[C@@H](C)CC)[C@@H](C)CC)C(=O)N[C@@H](CCC(N)=O)C(=O)N[C@@H](CCC(N)=O)C(=O)N[C@@H](CC(=O)O)C(=O)N[C@@H](Cc1ccccc1)C(=O)N[C@H](C(=O)N[C@@H](CCC(=O)O)C(=O)N[C@@H](Cc1c[nH]c2ccccc12)C(=O)N[C@@H](CC(C)C)C(=O)N[C@@H](CC(C)C)C(=O)N[C@@H](C)C(=O)N[C@@H](CCC(N)=O)C(=O)N[C@@H](CCCCN)C(=O)N1CCC[C@H]1C(=O)N[C@@H](CO)C(=O)N[C@@H](CO)C(=O)NCC(=O)N[C@@H](C)C(=O)N1CCC[C@H]1C(=O)N1CCC[C@H]1C(=O)N1CCC[C@H]1C(=O)N[C@@H](CO)C(=O)O)C(C)C

Target: T1, human GIP receptor
Experiment: cell-based or functional assay

| Binder | nM (Kb, Gaddum assay, cAMP) | pKb (Gaddum assay, cAMP) |
| --- | --- | --- |
| Suc-GTFISEYSI[Aib]LEKIK([AEEA-AEEA-γGlu-C18 diacid])QQEFVEWLLAQKPSSGAPPPS-OH [AT752] | 0.52 nM | 9.3 |
| B1 | 2.2 nM | 8.7 |
| B2 | 0.23 nM | 9.6 |
| B3 | 0.23 nM | 9.6 |
| B4 | 0.26 nM | 9.6 |
| B5 | 0.23 nM | 9.6 |
| B6 | 0.92 nM | 9 |
